The results in this text go back to patent US20050142106A1 (MIT, published 2005).

Test [1] concerns the target T1, IL-15Rα on F15R-Kit cells (UniProt Q13261 31-267).
T1 construct: whole, on cells
In words: flow cytometry on F15R-Kit cells. In general terms: In flow cytometry, cells or beads pass a laser one at a time.

Test [2] deals with T2, IL-2Rα on the surface of KIT225 or F15R-Kit cells (human, UniProt P01589 22-272).
T2 construct: whole, on cells; KIT225 cells also carry some IL-2Rβ and IL-2Rγ; also called IL-2 receptor α subunit; p55
T2 sequence (looked up): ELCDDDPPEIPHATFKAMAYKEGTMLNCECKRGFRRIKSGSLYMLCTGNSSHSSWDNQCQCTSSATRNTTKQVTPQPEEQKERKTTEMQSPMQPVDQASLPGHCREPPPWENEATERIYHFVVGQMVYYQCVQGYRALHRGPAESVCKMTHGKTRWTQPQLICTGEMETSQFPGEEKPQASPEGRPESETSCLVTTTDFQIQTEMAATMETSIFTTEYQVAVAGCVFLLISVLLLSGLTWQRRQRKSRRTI
Nature of the test: flow cytometry on KIT225 cells, 37 C, anti-FLAG detection. An excerpt: Cells were washed with ice-cold PBS, pH 7.4, containing 0.1% bovine serum albumin (BSA) and labeled with a biotinylated antibody against the FLAG epitope followed by streptavidin-phycoerythrin on ice. We washed the cells again and determined mean single cell fluorescence using an EPICS-XL flow cytometer.

Test [3] addresses T2, IL-2Rα on the surface of KIT225 or …. In words: flow cytometry on F15R-Kit cells, 30 min at 37 C, pH 7.4. As to the method:
(pH 7.4). Cell surface bound protein was measured using flow cytometry. Data from two different experiments (FIG. 12) were used to estimate Kd values.

In a further test the target is T3, IL-2Rβ on YT-2C2 cells (human, UniProt P14784 27-551).
T3 construct: whole, on cells; YT-2C2 cells express about 20,000 IL-2Rβγ, so IL-2Rγ is also present; also called p75
T3 sequence (looked up): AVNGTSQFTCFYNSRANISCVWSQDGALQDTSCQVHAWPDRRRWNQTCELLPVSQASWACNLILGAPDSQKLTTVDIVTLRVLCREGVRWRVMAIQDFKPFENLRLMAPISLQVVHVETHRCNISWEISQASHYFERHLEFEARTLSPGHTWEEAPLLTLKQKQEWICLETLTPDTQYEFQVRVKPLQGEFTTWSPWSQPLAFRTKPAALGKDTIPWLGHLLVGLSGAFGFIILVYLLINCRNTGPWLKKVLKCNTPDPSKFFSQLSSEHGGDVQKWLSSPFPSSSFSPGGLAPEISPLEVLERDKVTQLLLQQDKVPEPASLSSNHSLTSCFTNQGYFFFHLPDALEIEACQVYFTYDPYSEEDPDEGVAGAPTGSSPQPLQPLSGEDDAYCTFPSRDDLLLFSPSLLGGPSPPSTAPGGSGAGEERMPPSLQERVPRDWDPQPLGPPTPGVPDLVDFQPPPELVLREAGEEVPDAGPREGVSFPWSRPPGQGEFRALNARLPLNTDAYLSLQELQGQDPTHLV
Nature of the test: flow cytometry on YT-2C2 cells, on ice, anti-FLAG detection, global fit.

Test [4] deals with T2, IL-2Rα on the surface of KIT225 or …. In words: flow cytometry on KIT225 cells, 37 C; the reference value is cited from the literature.

T1 sequence (Q13261 31-267, stated change not applied): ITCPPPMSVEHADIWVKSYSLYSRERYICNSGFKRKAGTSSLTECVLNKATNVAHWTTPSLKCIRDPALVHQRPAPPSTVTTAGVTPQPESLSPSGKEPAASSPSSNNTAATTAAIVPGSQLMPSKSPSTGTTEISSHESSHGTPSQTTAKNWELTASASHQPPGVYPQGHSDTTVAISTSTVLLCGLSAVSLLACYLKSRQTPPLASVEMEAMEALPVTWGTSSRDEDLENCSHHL

B1: IL-2 mutant M6 (V69A, Q74P, I128T) (ligand, not shown: small tags and cut ends)
chain: APTSSSTKKTQLQLEHLLLDLQMILNGINNYKNPKLTRMLTFKFYMPKKATELKHLQCLEEELKPLEEALNLAPSKNFHLRPRDLISNINVIVLELKGSETTFMCEYADETATIVEFLNRWITFSQSTISTLT
notes: Soluble form secreted from yeast
Turning to B1, the binding result in test [1] is “no binding”. In addition, the Kd in test [2] was approximately 1 nM; in test [3] it was 1.22 nM; in the test with IL-2Rβ on YT-2C2 cells, 210 nM. For the same molecule, the “fold improvement in binding affinity relative to a wild-type Kd value of 28 nM (literature)” value in test [4] was not below 30 fold.

B2: IL-2 mutant 1a-1 (ligand, not shown: small tags and cut ends)
chain: APTSSSTKKTQLQLEHLLLDLQMILNGINSYKNPKLTRMLTFKFYMPKKATELKHLQCLEEELKPLEDALALAPPRNFHLRPRDLISNIHVIVLELKGSETTFMCEYADETATIVEFLNRWITFSQSIISTLT
notes: also called N31610-01_
Take B2: in test [1], the binding result is “no binding”. The molecule also returned a Kd in test [3] of 0.254 nM.

B3: IL-2 mutant 1b-8 (ligand, not shown: small tags and cut ends)
chain: APTSSSTRKTQLRLEHLLLDLQMILDGINTYKNPRLRRMLTFKFYMPKKATELKHLQCLEEELKPLEEALNLAPSKNFHLRPRDLISNINVTVLELKGSETTFMCEYADETATIVEFLNRWITFSQSIISTLT
notes: also called N31618-08_
As to B3, the binding result in test [1] is “no binding”. The same molecule showed a Kd in test [3] of 0.409 nM.

B4: IL-2 mutant 2-4 (ligand, not shown: small tags and cut ends)
chain: APTSSSTKKTQLQLEHLLLDLQMILNGISNHKNPRLARMLTFKFYMPEKATELKHLQCLEEELKPLEEALRLAPSKNFHLRPRDLISDVNVIVLELKGSETTFMCEYADETATIVEFLNRWITFSQSIISTLT
notes: also called N31618-14_; N31610-14_
For B4, in test [1], the binding result is “no binding”. This molecule also showed a Kd in test [3] of 0.18 nM.

B5: IL-2 mutant WE3 (ligand, not shown: small tags and cut ends)
chain: APTSSSTKKTQLQLEHLLLDLQMILNGINSYKNPKLTRMLTFKFYMPKKATELKHLQCLEEELKPLEEALNLAPSKNFHLRPRDLISNINVIVLELKGSETTFMCEYADETATIVEFLNRWITFSQSTISTLT
notes: also called N31610-25_
Consider B5, for which, in test [1], the binding result is “no binding”. For the same molecule, binding in test [3] was characterised by a dissociation constant (Kd) of 0.778 nM.

B6: IL-2 mutant WC9 (ligand, not shown: small tags and cut ends)
chain: APTPSSTKKARLQLEHLLLDLQMILNGINNYKNPKLTRMLTFKFYMPKKATELKHLQCLEEELKPLEEALNLAPSKNFHLRPRDLISDINVIVLELKGSETTFMCEYADETATIVEFLNRWITFSQSIISTLA
notes: also called N31610-18_
Regarding B6, the binding result in test [1] is reported as “no binding”. In addition, in test [3], the Kd is 1.58 nM.

The term Kd denotes the concentration at which binding is half-saturated. Low values mean tighter binding, high ones weaker binding.
